Here are results for four substances from patent EP1177203B1.

Assay [1] has as its target Collagen type I (Sigma), immobilized. Description: adherence assay, 35S-labelled 46°C-grown OG1RF cells on CI-coated wells (3.3% is the ace mutant TX5256).
Assay [2] concerns the target Collagen type IV (Sigma). Description: adherence assay, 46°C-grown cells on CIV-coated wells.
Assay [3] addresses Collagen type IV (Sigma). Description: adherence assay; OG1RF cells (46°C) on CIV-coated wells; no IgG.
In assay [4] the target is Mouse laminin (isolated from the EHS-sarcoma, Life Technologies) (mouse) (UniProt P19137). Description: adherence assay; OG1RF cells (46°C) on LN-coated wells; no IgG.
For assay [5], the target named is Collagen type I (Sigma), immobilized. Description: adherence assay, 46°C-grown cells on CI-coated wells.
Assay [6] addresses Collagen type IV (Sigma). Description: adherence assay; OG1RF cells (46°C) on CIV-coated wells; no IgG. The source holds these as a separate data set.
The target in assay [7] is Collagen type I (Sigma), immobilized. Description: adherence assay; OG1RF cells (46°C) on CI-coated wells; no IgG.
The target in assay [8] is Bovine serum albumin (bovine) (UniProt P02769). Description: adherence assay; OG1RF cells (46°C) on BSA-coated wells (negative control); no IgG.
For assay [9], the target named is Collagen type I (Sigma), immobilized. Description: adherence assay; OG1RF cells (46°C) on CI-coated wells; no IgG. The source holds these as a separate data set.
The target of assay [10] is Bovine serum albumin (bovine) (UniProt P02769). Description: adherence assay; OG1RF cells (46°C) on BSA-coated wells (negative control); no IgG. The source holds these as a separate data set.
Assay [11] concerns the target Mouse laminin (isolated from the EHS-sarcoma, Life Technologies) (mouse) (UniProt P19137). Description: adherence assay; OG1RF cells (46°C) on LN-coated wells; no IgG. The source holds these as a separate data set.
For assay [12] the target is unchanged. Description: adherence assay, 46°C-grown cells on LN-coated wells.
The target of assay [13] is Bovine serum albumin (bovine) (UniProt P02769). Description: adherence assay; V583 cells (46°C) on BSA-coated wells (negative control); no IgG.
The target of assay [14] is Collagen type I (Sigma), immobilized. Description: adherence assay; V583 cells (46°C) on CI-coated wells; no IgG.
Assay [15] deals with Collagen type IV (Sigma). Description: adherence assay; V583 cells (46°C) on CIV-coated wells; no IgG.
Assay [16] has as its target Mouse laminin (isolated from the EHS-sarcoma, Life Technologies) (mouse) (UniProt P19137). Description: adherence assay; V583 cells (46°C) on LN-coated wells; no IgG.
Assay [17] concerns the target Bovine Type I collagen (Collagen Corp.), immobilized on a CM5 sensor chip (bovine) (UniProt P02453). Description: SPR (BIAcore 1000), Scatchard analysis of equilibrium responses, 1-70 µM Ace A over immobilised collagen; three measurements.
In assay [18] the target is Collagen type I (Sigma), immobilized. Description: adherence assay; 37°C-grown MC02152 cells on CI-coated wells.
Assay [19] addresses Collagen type IV (Sigma). Description: adherence assay; 46°C-grown MC02152 cells on CIV-coated wells.
Assay [20] deals with Collagen type I (Sigma), immobilized. Description: adherence assay; MC02152 cells (46°C) on CI-coated wells; no IgG.
Assay [21] has the same target. Description: adherence assay; 46°C-grown MC02152 cells on CI-coated wells.
The target in assay [22] is Collagen type IV (Sigma). Description: adherence assay; MC02152 cells (46°C) on CIV-coated wells; no IgG.
Assay [23] addresses Mouse laminin (isolated from the EHS-sarcoma, Life Technologies) (mouse) (UniProt P19137). Description: adherence assay; MC02152 cells (46°C) on LN-coated wells; no IgG.
The target is the same in assay [24]. Description: adherence assay; 37°C-grown MC02152 cells on LN-coated wells.
Assay [25] addresses Bovine serum albumin (bovine) (UniProt P02769). Description: adherence assay; MC02152 cells (46°C) on BSA-coated wells (negative control); no IgG.
The target in assay [26] is Mouse laminin (isolated from the EHS-sarcoma, Life Technologies) (mouse) (UniProt P19137). Description: adherence assay; 46°C-grown MC02152 cells on LN-coated wells.
The target of assay [27] is Collagen type IV (Sigma). Description: adherence assay; 37°C-grown MC02152 cells on CIV-coated wells.

Chain of UniProt P02769 (P02769 25-607 limits assumed): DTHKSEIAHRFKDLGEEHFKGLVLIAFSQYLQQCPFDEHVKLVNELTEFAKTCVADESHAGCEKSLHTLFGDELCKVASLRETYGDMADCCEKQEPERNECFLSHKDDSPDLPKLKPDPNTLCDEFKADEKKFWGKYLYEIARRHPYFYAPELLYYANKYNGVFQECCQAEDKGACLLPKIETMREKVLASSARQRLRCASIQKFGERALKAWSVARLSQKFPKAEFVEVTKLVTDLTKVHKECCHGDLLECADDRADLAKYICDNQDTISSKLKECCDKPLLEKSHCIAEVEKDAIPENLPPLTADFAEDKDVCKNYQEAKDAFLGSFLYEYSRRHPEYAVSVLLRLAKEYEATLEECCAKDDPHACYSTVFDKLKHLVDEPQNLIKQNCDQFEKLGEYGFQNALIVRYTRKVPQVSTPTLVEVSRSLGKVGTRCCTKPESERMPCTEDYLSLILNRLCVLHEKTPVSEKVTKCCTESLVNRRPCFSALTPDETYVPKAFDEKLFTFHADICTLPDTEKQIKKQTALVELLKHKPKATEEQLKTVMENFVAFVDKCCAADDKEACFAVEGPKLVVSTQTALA
Chain of UniProt P02453 (P02453 162-1217, chain 1 of 2): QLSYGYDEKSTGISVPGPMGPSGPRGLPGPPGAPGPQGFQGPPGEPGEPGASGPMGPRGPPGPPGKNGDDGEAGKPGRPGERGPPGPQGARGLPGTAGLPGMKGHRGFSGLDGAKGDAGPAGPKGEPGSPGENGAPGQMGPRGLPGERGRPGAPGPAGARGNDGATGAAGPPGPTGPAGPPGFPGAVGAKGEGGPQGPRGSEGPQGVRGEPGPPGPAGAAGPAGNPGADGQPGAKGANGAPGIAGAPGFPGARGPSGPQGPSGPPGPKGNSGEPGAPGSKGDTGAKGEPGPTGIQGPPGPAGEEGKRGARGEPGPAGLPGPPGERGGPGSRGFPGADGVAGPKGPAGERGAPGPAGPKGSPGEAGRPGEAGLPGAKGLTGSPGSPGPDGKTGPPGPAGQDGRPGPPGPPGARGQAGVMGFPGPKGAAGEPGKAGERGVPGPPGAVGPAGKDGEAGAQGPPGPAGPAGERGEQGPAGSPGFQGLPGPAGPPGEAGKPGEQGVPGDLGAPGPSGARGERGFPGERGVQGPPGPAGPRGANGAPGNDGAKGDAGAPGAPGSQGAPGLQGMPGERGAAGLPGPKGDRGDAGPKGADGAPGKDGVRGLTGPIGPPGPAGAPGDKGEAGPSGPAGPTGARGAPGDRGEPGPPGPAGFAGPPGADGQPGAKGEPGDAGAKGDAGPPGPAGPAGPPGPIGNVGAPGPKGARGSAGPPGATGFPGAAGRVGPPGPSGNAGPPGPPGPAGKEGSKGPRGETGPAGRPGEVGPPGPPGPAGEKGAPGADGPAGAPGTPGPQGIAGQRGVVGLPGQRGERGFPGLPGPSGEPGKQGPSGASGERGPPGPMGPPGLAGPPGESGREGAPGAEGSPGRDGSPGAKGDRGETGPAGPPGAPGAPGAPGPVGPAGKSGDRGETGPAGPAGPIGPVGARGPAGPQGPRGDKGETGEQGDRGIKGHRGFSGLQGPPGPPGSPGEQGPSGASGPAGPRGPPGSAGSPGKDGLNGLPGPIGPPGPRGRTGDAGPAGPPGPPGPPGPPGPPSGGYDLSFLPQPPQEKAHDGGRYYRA
Chain of UniProt P02453 (P02465 80-1117, chain 2 of 2, further chain): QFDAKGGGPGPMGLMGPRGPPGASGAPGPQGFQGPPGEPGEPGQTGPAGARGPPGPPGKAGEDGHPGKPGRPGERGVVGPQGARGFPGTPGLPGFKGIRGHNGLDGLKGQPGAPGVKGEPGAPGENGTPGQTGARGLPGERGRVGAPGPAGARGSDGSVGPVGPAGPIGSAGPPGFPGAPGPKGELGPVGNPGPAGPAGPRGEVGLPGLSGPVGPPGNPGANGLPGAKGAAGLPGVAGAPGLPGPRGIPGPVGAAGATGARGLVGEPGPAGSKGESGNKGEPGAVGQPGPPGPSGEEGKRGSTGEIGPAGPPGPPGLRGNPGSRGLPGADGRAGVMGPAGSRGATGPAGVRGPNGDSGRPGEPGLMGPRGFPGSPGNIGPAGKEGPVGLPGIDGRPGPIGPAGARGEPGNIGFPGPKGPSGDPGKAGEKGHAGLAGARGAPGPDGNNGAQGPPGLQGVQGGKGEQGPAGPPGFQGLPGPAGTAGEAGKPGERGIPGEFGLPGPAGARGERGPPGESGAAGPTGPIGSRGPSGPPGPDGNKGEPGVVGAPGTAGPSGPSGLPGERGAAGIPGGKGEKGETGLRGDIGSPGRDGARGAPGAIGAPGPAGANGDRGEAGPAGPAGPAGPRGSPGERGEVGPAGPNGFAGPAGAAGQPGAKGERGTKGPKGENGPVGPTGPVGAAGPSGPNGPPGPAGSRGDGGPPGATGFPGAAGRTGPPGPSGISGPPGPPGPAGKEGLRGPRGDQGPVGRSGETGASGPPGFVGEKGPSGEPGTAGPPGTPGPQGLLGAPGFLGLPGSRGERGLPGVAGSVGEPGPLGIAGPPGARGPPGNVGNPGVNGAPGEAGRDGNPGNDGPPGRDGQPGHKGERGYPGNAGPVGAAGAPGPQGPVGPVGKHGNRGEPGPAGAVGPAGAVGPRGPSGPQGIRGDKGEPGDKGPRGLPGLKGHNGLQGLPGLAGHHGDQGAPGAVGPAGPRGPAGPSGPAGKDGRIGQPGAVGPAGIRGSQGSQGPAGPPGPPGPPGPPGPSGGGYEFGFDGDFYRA

In the case of “Ace protein of E. faecalis strain OG1RF (native; on 46°C-grown cells or in mutanolysin-PMSF extracts)”, the % of cells bound in assay [1] was 21.1%; in the assay with Collagen type IV (Sigma) [3] it was 27.7%; in assay [4], 32%; with Collagen type IV (Sigma) [6], 29.6%; in assay [7] it was 24.6%; in assay [8] it was 0.6%. Also, the values for the % of cells bound in assay [9], in [10] and in [11] were 25.6%, 0.9% and 31.9%, respectively. Besides, the fold decrease in adherence, ace mutant TX5256 against OG1RF was 27.4 fold with Collagen type IV (Sigma) [2] and 32.9 fold in assay [12]. This substance came in with a fold decrease in percentage of binding, ace mutant TX5256 against OG1RF in assay [5] of 6.5 fold.

Consider “Ace protein of E. faecalis strain V583 (native; on 46°C-grown cells or in mutanolysin extract)”, for which the % of cells bound is 0.7% in [13], 29.2% in assay [14], 38.1% with Collagen type IV (Sigma) [15] and 29.4% in assay [16].

What is called Kd is the free concentration of one partner at which half of the binding sites on the other are occupied at equilibrium, for simple one-to-one binding. Lower therefore signals tighter binding. As to “Recombinant E. faecalis EF1 Ace A domain (N-terminal His6-tag fusion protein)”, in assay [17], the Kd amounted to 48 µM.

Take “Ace protein of E. faecalis strain MC02152 (native; on cells or in mutanolysin extract)”: the % of cells bound was found to be 6% in assay [18]; 38% with Collagen type IV (Sigma) [19]; 26% in [20]; 29% in assay [21]; 27.7% with Collagen type IV (Sigma) [22]; 26.7% in [23]. Moreover, the % of cells bound is 7.1% in [24], 0.6% in assay [25], 41% in assay [26] and 8.9% with Collagen type IV (Sigma) [27].
